Measurements taken from the supplement of paper PMC7877785.
± gives the uncertainty stated by the source.

Experiment: self-splicing fitness, log relative to wild type (ln ratio); higher = more splicing; Tetrahymena group I intron in knt gene, E. coli kanamycin selection, DiMSum; sequences stand for … in CUCUCU…GGAGGGAAAAGUUAUCAGGCAUGCACCUGGUAGCUAGUCUUUAAACCAAUAGAUUGCAUCGGUUUAAAAGGCAAGACCGUCAAAUUGCGGGAAAGGGGUCAACAGCCGUUCAGUACCAAGUCUCAGGGGAAACUUUGAGAUGGCCUUGCAAAGGGUAUGGUAAUAAGCUGACGGACAUGGUCCUAACCACGCAGCCAAGUCCUAAGUCAACAGAUCUUCUGUUGAUAUGGAUGCAGUUCACAGACUAAAUGUCGGUCGGGGAAGAUGUAUUCUUCUCAUAAGAUAUAGUCGGACCUCUCCUUAAUGGGAGCUAGCGGAUGAAGUGAUGCAACACUGGAGCCGCUGGGAACUAAUUUGUAUGCGAAAGUAUAUUGAUUAGUUUUGGAGUACUCGUGGUCG
Procedure, shortened: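 DiMSum derived fitness as the error-weighted combination of fold changes across replicates, kanamycin versus no kanamycin, normalised to wild type. E. coli BL21(DE3) held the library, which randomised all eight P1ex-region intron nucleotides within the knt kanamycin-resistance gene on pET-22b(+). Six replicate transformations grew overnight at 37°C or 30°C on LB agar with or without 25 μg/mL kanamycin, also containing 100 μg/mL carbenicillin, 50 μM IPTG and 0.2% rhamnose, and pooled colonies were amplicon-sequenced on an Illumina HiSeq 2500.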

Sequence	self-splicing fitness (ln) (30 °C)	self-splicing fitness (ln) (37 °C)
UCGCAGCAAUAUUACGACAG	-2.6 ± 0.25	-0.246 ± 0.35
UCGCAGCAAUAUUACGCAGC		-2.1 ± 0.45
UCGCAGCAAUAUUACGCAGG	-3.59 ± 0.2	-2.2 ± 0.19
UCGCAGCAAUAUUACGCAUU	-2.57 ± 0.18	-2.43 ± 0.21
UCGCAGCAAUAUUACGCCAA	-1.37 ± 0.16	-1.23 ± 0.22
UCGCAGCAAUAUUACGGCUC	-3.21 ± 0.17	-2.96 ± 0.35
UCGCAGCAAUAUUACGGGAG	-3.59 ± 0.24	-3.15 ± 0.23
UCGCAGCAAUAUUACGGGGU	-3.73 ± 0.17	-2.72 ± 0.18
UCGCAGCAAUAUUACGGUAG	-2.49 ± 0.086	-0.887 ± 0.086
UCGCAGCAAUAUUACGGUAU	-3.36 ± 0.17	-1.78 ± 0.21
UCGCAGCAAUAUUACGUAGG	-0.74 ± 0.068	-0.377 ± 0.086
UCGCAGCAAUAUUACGUAGU	-2.58 ± 0.13	-2.85 ± 0.26
UCGCAGCAAUAUUACGUAUU	-3.64 ± 0.15	-1.85 ± 0.12
UCGCAGCAAUAUUACGUCAG	-1.59 ± 0.12	0.604 ± 0.15
UCGCAGCAAUAUUACGUGCU	-3.64 ± 0.16	-2.15 ± 0.17
UCGCAGCAAUAUUACGUUAC	-3.36 ± 0.36	-2.95 ± 0.25
UCGCAGCAAUAUUACGUUCC	-2.7 ± 0.23	
UCGCAGCAAUAUUACGUUUC	-3.87 ± 0.2	-1.66 ± 0.12
UCGGAGCAAUAUUACGAACG		-1.54 ± 0.35
UCGGAGCAAUAUUACGAAUA	-2.32 ± 0.32	-1.27 ± 0.32
UCGGAGCAAUAUUACGACGC	-1.25 ± 0.25	-0.73 ± 0.22
UCGGAGCAAUAUUACGAUGU	-2.81 ± 0.17	-1.2 ± 0.13
UCGGAGCAAUAUUACGCAUU		-2.14 ± 0.27
UCGGAGCAAUAUUACGCCUU	-2.96 ± 0.29	-2.92 ± 0.43
UCGGAGCAAUAUUACGGACG	-1.65 ± 0.21	0.113 ± 0.17

Sequence	self-splicing fitness (ln) (30 °C)	self-splicing fitness (ln) (37 °C)
UCGGAGCAAUAUUACGGAUU	-2.73 ± 0.27	-2.85 ± 0.38
UCGGAGCAAUAUUACGGCCG	-1.49 ± 0.31	
UCGGAGCAAUAUUACGGCGG	-1.42 ± 0.11	-0.955 ± 0.17
UCGGAGCAAUAUUACGGGAU	-3.48 ± 0.25	-2.81 ± 0.38
UCGGAGCAAUAUUACGGUUC		-2.89 ± 0.43
UCGGAGCAAUAUUACGUCGA	-0.356 ± 0.42	-0.949 ± 0.3
UCGGAGCAAUAUUACGUGUU	-3.26 ± 0.24	-2.25 ± 0.26
UCGGAGCAAUAUUACGUUCG	-1.19 ± 0.17	-1.27 ± 0.27
UCGUAGCAAUAUUACGAAGC		-1.29 ± 0.35
UCGUAGCAAUAUUACGACGG	-2.04 ± 0.2	-0.573 ± 0.19
UCGUAGCAAUAUUACGAGGA	-3.72 ± 0.39	-2.58 ± 0.29
UCGUAGCAAUAUUACGAUAA	-3.65 ± 0.26	-1.72 ± 0.2
UCGUAGCAAUAUUACGAUAG		-3.12 ± 0.38
UCGUAGCAAUAUUACGAUCG	-2.77 ± 0.23	-0.597 ± 0.18
UCGUAGCAAUAUUACGAUUA	-2 ± 0.3	-0.78 ± 0.17
UCGUAGCAAUAUUACGCCCA	-0.576 ± 0.14	0.129 ± 0.19
UCGUAGCAAUAUUACGCGCG	-1.62 ± 0.12	-1.34 ± 0.15
UCGUAGCAAUAUUACGCGUU	-2.91 ± 0.26	-2.18 ± 0.26
UCGUAGCAAUAUUACGCUGC		-2.48 ± 0.36
UCGUAGCAAUAUUACGGAUU	-2.08 ± 0.14	-2.85 ± 0.23
UCGUAGCAAUAUUACGGCAU	-3.93 ± 0.27	-2.53 ± 0.28
UCGUAGCAAUAUUACGGGUA	-1.57 ± 0.17	-0.425 ± 0.16
UCGUAGCAAUAUUACGGUCA	-0.782 ± 0.16	-0.0592 ± 0.13
UCGUAGCAAUAUUACGGUUG	-2.14 ± 0.12	-1.05 ± 0.15
UCGUAGCAAUAUUACGGUUU	-3.44 ± 0.14	-1.37 ± 0.11

Sequence	self-splicing fitness (ln) (30 °C)	self-splicing fitness (ln) (37 °C)
UCGUAGCAAUAUUACGUAGG	-2.71 ± 0.17	-0.631 ± 0.15
UCGUAGCAAUAUUACGUGGC	-4.04 ± 0.16	-2.22 ± 0.12
UCGUAGCAAUAUUACGUGUC	-3.24 ± 0.25	-2.38 ± 0.25
UCUAAGCAAUAUUACGAAGC	-1.05 ± 0.39	-1.8 ± 0.36
UCUAAGCAAUAUUACGACUA	-3.07 ± 0.25	-0.59 ± 0.15
UCUAAGCAAUAUUACGCAUA	-1.86 ± 0.18	-2.33 ± 0.25
UCUAAGCAAUAUUACGCCCA	-1.48 ± 0.15	-0.486 ± 0.17
UCUAAGCAAUAUUACGCUCG	-1.43 ± 0.2	-1.36 ± 0.18
UCUAAGCAAUAUUACGGCCA	-1.21 ± 0.22	-1.17 ± 0.21
UCUAAGCAAUAUUACGGCGA	-0.734 ± 0.086	-0.474 ± 0.092
UCUAAGCAAUAUUACGGCGU	-2.01 ± 0.11	-0.795 ± 0.11
UCUAAGCAAUAUUACGGGGG	-3.17 ± 0.22	-0.678 ± 0.17
UCUAAGCAAUAUUACGUCAU	-3.45 ± 0.2	-2.4 ± 0.16
UCUAAGCAAUAUUACGUCCA	-2 ± 0.14	-0.707 ± 0.13
UCUAAGCAAUAUUACGUCCC		-0.386 ± 0.41
UCUAAGCAAUAUUACGUCGA	-0.33 ± 0.088	0.0723 ± 0.11
UCUAAGCAAUAUUACGUCUA	-2.51 ± 0.33	-2.25 ± 0.4
UCUAAGCAAUAUUACGUCUG	-1.72 ± 0.16	-1.18 ± 0.19
UCUCAGCAAUAUUACGAAUU	-3.12 ± 0.13	-1.77 ± 0.15
UCUCAGCAAUAUUACGAGGA	-3.23 ± 0.26	-1.77 ± 0.14
UCUCAGCAAUAUUACGAGGG	-2.87 ± 0.11	-1.31 ± 0.12
UCUCAGCAAUAUUACGAGUC	-3.98 ± 0.18	-2.93 ± 0.18
UCUCAGCAAUAUUACGAUCU	-1.68 ± 0.14	-2 ± 0.2
UCUCAGCAAUAUUACGCAUG		-1.04 ± 0.45
UCUCAGCAAUAUUACGCCGC	-2.99 ± 0.34	-1.52 ± 0.36

Sequence	self-splicing fitness (ln) (30 °C)	self-splicing fitness (ln) (37 °C)
UCUCAGCAAUAUUACGCGUC	-3.62 ± 0.27	-2.81 ± 0.29
UCUCAGCAAUAUUACGGAUU	-1.73 ± 0.097	-1.15 ± 0.11
UCUCAGCAAUAUUACGGUGA	-1.8 ± 0.13	-1.14 ± 0.12
UCUCAGCAAUAUUACGGUUC	-2.57 ± 0.21	-1.73 ± 0.34
UCUCAGCAAUAUUACGUAUC	-3.5 ± 0.24	-1.9 ± 0.25
UCUCAGCAAUAUUACGUCUC	-4.6 ± 0.31	-3 ± 0.23
UCUCAGCAAUAUUACGUGGU	-1.7 ± 0.1	-2.48 ± 0.16
UCUCAGCAAUAUUACGUGUG	-2.33 ± 0.098	-2.27 ± 0.11
UCUCAGCAAUAUUACGUUCC	-2.72 ± 0.36	-0.417 ± 0.28
UCUGAGCAAUAUUACGAAGG	-3.05 ± 0.21	-0.953 ± 0.15
UCUGAGCAAUAUUACGAGAC	-2.52 ± 0.17	
UCUGAGCAAUAUUACGAGCU	-2.99 ± 0.24	-2.23 ± 0.47
UCUGAGCAAUAUUACGAGGA	-3.8 ± 0.4	-3.29 ± 0.42
UCUGAGCAAUAUUACGAGUG	-3.98 ± 0.4	-1.24 ± 0.22
UCUGAGCAAUAUUACGAUAG	-3.28 ± 0.18	-1.93 ± 0.18
UCUGAGCAAUAUUACGAUCG		-0.514 ± 0.41
UCUGAGCAAUAUUACGCAAU	-2.13 ± 0.16	-2.97 ± 0.21
UCUGAGCAAUAUUACGCAUA	-2.73 ± 0.17	-1.19 ± 0.15
UCUGAGCAAUAUUACGCGCA	-2.16 ± 0.3	
UCUGAGCAAUAUUACGCUGA	-1.89 ± 0.17	-0.151 ± 0.15
UCUGAGCAAUAUUACGGAUU	-3.51 ± 0.26	-1.72 ± 0.23
UCUGAGCAAUAUUACGGCCG	-2.7 ± 0.37	
UCUGAGCAAUAUUACGGCGU	-1.82 ± 0.1	-0.983 ± 0.14
UCUGAGCAAUAUUACGGGAU	-2.35 ± 0.18	-2.54 ± 0.24
UCUGAGCAAUAUUACGGGGU	-4.62 ± 0.32	-2.28 ± 0.25
